Results reported in the DeepSol protein solubility set.

Experiment: soluble on expression in E. coli; label from the status in PepcDB or PDB records

| Sequence | soluble on expression in E. coli |
| --- | --- |
| MAVIEAEGLWKIFGGDPERARTLAKEGMSKAEVKEETGSVIAVDDANFEVQEQEIFVVMGLSGSGKSTLLRCVNRLIEPTFGKVHVHDDEVTAFDEDRLRKLRRTKMSMVFQNFGLFPHRTVIGNVEYGLEVAGMDKEKRRGKARQSLELVGLDGYEDSQTSQLSGGMQQRVGLARALVNDPEILLMDEAFSALDPLIRADMQNELLELQEQWDPACTILFITHDLDEALKMGDRIAIMKDGRIAQIGTPTEILTEPADEYVRSFVENVDRTKIVPARTVMRALGDDETVAADGPSVSPHTPIAELLPALVDADGPLAVRDSGGTLQGVVSQDAVMEEVVQNADGARRRDARAGRTDEDPEAAVALEHHHHHH | soluble |
| NNMHHLAVVGARDSTSYTQQSLEFLLSNDKSKYLTIVSGLAQGADAMAHQIALKYNLPTIAVLAFGHQTHYPKSTLALRNKIEEKGLVISEYPPHTPIAKYRFPERNRIISGLSKGVLITEAKEQSGSHITIDFALEQNRNVYVLPGSMFNPMTKGNLLRIQEGAKVVLNANDIFEDYYI | not soluble |
| MKILLIEDNQRTQEWVTQGLSEAGYVIDAVSDGRDGLYLALKDDYALIILDIMLPGMDGWQILQTLRTAKQTPVICLTARDSVDDRVRGLDSGANDYLVKPFSFSELLARVRAQLRQHHALNSTLEISGLRMDSVSHSVSRDNISITLTRKEFQLLWLLASRAGEIIPRTVIASEIWGINFDSDTNTVDVAIRRLRAKVDDPFPEKLIATIRGMGYSFVAVKK | soluble |
| MNQKMIIGNAEAICLPELGITHLEARIDTGAQTSSLHVDNIDCFEKDGQSYVAFDLHPDVYHLEQVVRCTAKLKANRKVKSSNGTFEHRCVITTMLRLGDQEWPIDITLTNREKMTYMMLLGRQGMADKVLVDPSQSHLLAS | not soluble |
| MGSDKIHHHHHHMPQRLYTYPPLLRGRLLQRYKRFFADIELDSGETITAHCPNTGPMTGVCQMGNLVYVSKSDNPKRKLAYTWELIEVTDNEPTWVGVNTGLPNRVVQALLEQRCLPVLGDYGEVQREVPYGENSRIDFRLTGDRPIYVEVKNTTWTAGRLALFPDTVTTRGQKHLRELTAILLEARAVMLYFINRGDCTAFAPGDSADPTYGQLLRTGIAAGLEVYPCQFQISPEGIDFLGVAPLQL | not soluble |
| MGSDKIHHHHHHMDIELREKIAGEITLSDSPAETIRKWREEFKVSQLELSNFLNQSPSVISDYETGRRKFPSIASVRKIVDALITIDERRGGYVIKKYKSGVPSDALIDIKDYDRDVPLEKAIRAMNGKNVSHVSVERNIRGYTIVDGVKAILAFSYYEYSKLYGWSSERAIFFTDVKFGRSPMIAIRVHPLKPAAVVYIQPDNVDDLAIKLADIENIPLLITEMSPEAVSHVMSQLR | not soluble |
| MSDIKNITKLQIEDKGKKYSLYSLKKLSQELGKDVTRLPYSIRVLLENQLRNIDGYKVKEDDMHKVLDWDAKASSRPEIPHMPARVVMQDFTGVPAVVDLAAMRKAIKDAGGDADKINPLVDTAMVIDHSVQVDFYGTKTALAQNVAKEFERNGERYSLLKWAQKAFDDFIVVPPGMGIIHQVNLEYLAKGALVKNINGEDVIYPDTLVGTDSHTTMINGVGVVGWGVGGIEAEAVMLGQPYYMVLPDVVGVKFTGKLKTGVTATDLVLKVTEVLRKHGVVGKFVEYYGEGLESLSLPDRATIANMAPEYGATIGFFPVDEVTLDFFNNTNRSELVDAAREMYKEQLLFRENPAEEPEYSSIVEIDLSEVESNLAGPKRPQDRVAFHDMKKAFAEALVHEQGLHGFGLTDEQLQKLAEVKGLNERITHGSVAIAAITSCTNTSNPSLLLGAGLLAKKANEKGLKVKPFVKTSLAPGSQVVTQYLEKANLLPELENLGFNLVGYGCTTCIGNSGPLDEPVVEAINEADLIVASVSSGNRNFEGRINPHVKANYLASPIHVVAYALAGTVDFDPVEDAIGKDAEGNDVYLADIWPTTEEIAAIQSHVINSDMFKKAYATVLDGTEDWQKLKAPEGKLYEFDSSSTYIQCPNFFEKFAEGNDDLDIKGARTLLMLGDSVTTDHISPAGAIPEEYPAGQYLKSHGVEKKDFNSYGSRRGNHEVMMRGTFANIRIRNLLLDNVEGGFTKYHLDGSQQYVFDAAMKYKEKGIPLVILAGKEYGTGSSRDWAAKGTFLLGVKAVIAESYERIHRSNLVGMGVLPLEYVNGQNAKTLGLDGTEMFNIKNLNNIKPRQIVIVEAVHPKTAHTTTFEALARLDADVDVDYLKNGGILQTVLKDIMGDKKESKSTQSTTSKGCGSADTSSETSCPFAKIANFFKKLFK | not soluble |
| MVFGFTKRDRRVPDLSRYDYYYQNHEDYNKSPQLSAAAASAASAASPDRTNYSRSHSLVSHAPSIPRQRSSVKSPGRRLSTSSAAPPTSRAAAKQYSQKTYSLRSQRSGEYHLHPPGYTTNGSRMNSMTSGANVRRNYGKNKSTAGNNNDSRANSITVKTTQVTDPSGRTQSITKKTIRKINGYEYVETTTTTKNLVPLGDSQRHFDEFSENYMLQDDDILEEQASDNIHDIIEENETDNEKPYSPVSESHLQDDSELNVEKPDFPLGSYFHHKYSTDVMPLEEESSLSNFSDALDYIPPTHQTSSKYIHNKRKQASTTRRKKRPPAVKNAEAEAKKPLTEAEMYLKALEVAKRNVYHTDAASDNASAPLGSNKSRKSRMGQKMTLRSSSDSPTATANLVKSNVEVQPKRFTSSFFSRNTKSAPHEVHNHSVSTHFKSNKAVDPVPEPKSANTGLTDKEMYDQALKIAQARYYNSHGIQPEAVDNSTTAAKPRQVGVSHLGSTGSIPPNEQHYLGDSEIPVQSEVHEYEPIPLQKTKTTGSSKNKFKTMFDKVLQFSQENYGYQHKKEQGEQTPVTRNAEESFPAASISEGVTTAKPSSNEGVMTNPVVTDSPSPLQQQIDSTTASSNGQSQGNVPTSAVASTTRTRSPELQDNLKSSSSLLQDQTPQRQEDATDPTTSSTNELSAAEPTMVTSTHATKTIQAQTQDPPTKHKKSSFFTKLFKKKSSR | soluble |
| SKELKVLVLCAGSGTSAQLANAINEGANLTEVRVIANSGAYGAHYDIMGVYDLIILAPQVRSYYREMKVDAERLGIQIVATRGMEYIHLTKSPSKALQFVLEHYQ | not soluble |
| MGAMIVKEVYETAEKIKSMEIRGAGRIARAAAQALMIQAEKSKAKEPEELWNELKVASKILYNTRPTAVSLPNALRYVMHRVKAAYLGGADLETLRFTAINSAKEFIYNSEKAIERIGEIGAKRIEDGDIIMTHCHSKAAISVMKKAFEQGKNIKVIVTETRPKWQGKITAKELASYGIPVIYIVDSAARHYMKMTDKVVMGADSITANGAVINKIGTSLIALTAKEHRVWVMIAAETYKFHPATMLGQLVEIEMRDPTEVIPEEELRTWPKNIEVWNPAFDVTPPEYIDVIITERGIIPPYAAIDILKEEFGWALKYKEPWED | soluble |
| MRGFLKFAILAAVLLALAYGDDEDEEASELERRRIRNCPEVTFKRMTGCVWEFGRFLKKVLFLDLEQRTLDRFRKSCLSMAECFDLIECKETGKFSRGKRIKDSCDVMNYLSKDFVPCLKRLERLDPAPTCFNKWKPFSDLNEVGPDTTPEEMEELCKNMLGKDNCMKDLVSRTCGGVMSQELVDRFEATSVFKQCDAD | not soluble |
| MEAAANRQLIVSFTPYEWKYVRQLFRSRRIEDVKECVIILATWISRTGENTPVAISCSHVLLQAIYAELLSTGMCESERYMAIDDLRSKHGYAIVRFVNYVNEMGQTGATLKNMVHAVKSFGIPKKIVDIRHAITHQNCPDIAELRYATNFCLDWLWKNFWLSDARVAMNSAAATNSSKNPTSSSEFGGQRGREQQYVSSLRAFNTWRVKNRQLTTELEWSEVAELLALKHHILLDSTGFLTCFMRDGHLIQTPGQWKNWKLPVTCSNDNWQIPEEIQAFWEPLFHVMFSLKLGAEIVVAFLWRLREPMIKDMTRHQITAYVRMIVQQFADADVFSDEEWYKVLDHLLPVAKNFSTEFIELVMARCTTLAHKRKKQIRQILNISTKSHVESPSTSSSDTVHTVSDLQKLLKKSSKSVVKSEPVTSNADGNRTGIELCDVAAWAEVPFGMAPGQRIETFTVVLDHHGSDKSRKRRAFDAAITLDED | not soluble |
| EEKYVTVQPYTSQSKDEIGFEKGVTVEVIRKNLEGWWYIRYLGKEGWAPASYLKKAKD | soluble |
| EVQDVNDSSWKEFVLESEVPVMVDFWAPWCGPCKLIAPVIDELAKEYSGKIAVYKLNTDEAPGIATQYNIRSIPTVLFFKNGERKESIIGAVPKSTLTDSIEKYL | soluble |
| MSLRESCKKDLSAGESIRKTRRISVMRSASGNETFGVICRTLYGDFIQFSTKQIVVMSTLFRSLSMSSSAGDSNLFTGNSALKNDSVVAGKPEWAQNSRRRVIPSHLAPKKKTGFHLSSSVSTRKSGGDKKDVFQAENGGEFNLLSFGTNQKRLGTGSFDRVNANSSFFDTSFAGDLTRFDDAVNSSKTQDDFLVYTNDEDMPPSRSIYDLNDEVLISLKSLQNNNEDKTSDANDPKNFRNIFVRDAPKASPSEDSNDQAKQLSNGELAILVFGYPETMANQVIAYFQEFGTILEDFEVLRKPQAMTVGLQDKQFVPIFSGNSWTKITYDNPASAVDALLENGAVFNGVLLGVIPYTKDAVERLQKRKLTSSEDIGSGITTAAAEGHHHHHH | soluble |
| MQVIHQYSNKGGKYQNRYDVSILVNGLPLVHVELKKRGVAIREAFNQIKRYKRDSFSAEDGLFDFVQIFVISNGTSSKYYSNTTRIAQLEKNHKADTFEFTNYWADSKNHNIEDLMDFAKAFFAKRSLLNVLTCYCVFTSEEVLLVMRPYQIVAAERILEKIKTAQNSKTKNQSKGYIWHTTGSGKTLTSFKSATLAKELESVSKVLFVVDRKDLDYQTMKEYDKFQKDCANSNTSTKILKEQLEDSNAKIIITTIQKLDKFVKSHKGHAIFNEEVVMIFDECHRSQLGSMHQAITKAFKKYHLFGFTGTPIFAANCDKNNPLGTTEQKFGKCLHQYTIIDAIRDKNVLPFRVEYHNTIKAKEDIKDNKVRAVDEKNALLDTRRIKEITKCILERFNQATKNKKFNSILACSSIEALKKYYQAFKEEKHDLKIAAIFSYSANEEIDTLEDENNESACRLDKSSRDFLEGAIADYNGMFGVSFDTSDQKFQSYYKDLSQKMKERKIDLLMVVNMFLTGFDATRLNTLWVDKNLKYHGLIQAFSRANRILDSVKTHGNIVCFRDLEQDLNDALMLFGNKDAQSIALLRKYEDYLKGYTDNNKEYEGYEGLIKRLLTEFPLKEPIVSESQKKDFIKLFGKILKLENILNSFENFKKDDYINPRDFQDYQSKYLDFYDAMRSEKGKDKEEINDDLIFEIELIKQVEVNIDYILNLIEEFAKEHGVEIQGVKTKIEPIINSSIELRNKKDLIMDFIDKYNKDQEVHAHFQDYIHQKREEEFQNIIEENRLNEEKAYSFMQHAFKGGEISFSGTEFPKIIEEKPSMFGKNSRYQEVKEKVAASLSRFFHRFCDLTSAIFKKNEVKKDEVNEK | not soluble |
| MGSDKIHHHHHHMKIVTYSKNVFIPLTRNCRNRCDYCGFRSEEIGVMSAEEVRKILSAARGAKEALFTFGERPDEVYPEFKAMLLEMGYKSMVDYILEMNKIAVEMGFLPHTNAGILSKEEMRKLKPYNASMGLMLEQAVELECHANSPGKKPEVRIKMIRDAGKLQIPFTTGILVGIGEGREDRLYSLEIIAEIQDNYGHIQEVIVQNFKPKKGTPMENTPPPTLEEMLEAVKAAREILPQEVAIQIPPNLVDDIYPFLKAGANDVGGISNVTHDYINPESPWPEVERLERALRGEFILKERLPIYPRFVKLKWYGEALEPLIEKYSDADGYARP | not soluble |
| MSLQVSQYLYQNAQSIWGDCISHPFVQGIGRGTLERDKFRFYIIQDYLFLLEYAKVFALGVVKACDEAVMREFSNAIQDILNNEMSIHNHYIRELQITQKELQNACPTLANKSYTSYMLAEGFKGSIKEVAVAVLACGWSYLVIAQNLSQIPNALEDAFYGHWIKGYSSKEFQACVTWNINLLDSLALASSKQEIEKLKEIFIATSEYEYQFWDMAYQSEGGSHHHHHH | soluble |
